Reference: patent US20180312587A1 (ADURO BIOTECH HOLDINGS EUROPE B V, published 2018)

Legend:
human SIRPα variant 1 = biological target: T1, human SIRPα variant 1 (human, UniProt P78324 31-504); assay: CELISA, CHO-K1 transfectants, domain exchange study
T1 construct: full length ORF on transfected CHO-K1 or HEK293 cells; entry includes the signal peptide; also called hSIRPαV1; SIRPαV1
Excerpt: Based on the fold of SIRPα, the extracellular region can be subdivided into three separate domains: the Ig-like (immunoglobulin-like) V-type (IgV), Ig-like C1-type (IgC1), and Ig-like C2-type (IgC2) domain. The IgV domain is also known as the ligand-binding N-terminal domain of SIRPα (which binds to CD47). The human SIRPαV1/β1 mutants were designed on the basis of the full length hSIRPαV1 sequence (SEQ ID NO: 33) and each individual Ig-like domain was substituted for the equivalent domain of human SIRPβ1 (SEQ ID NO: 37). The cDNAs encoding the constructs, hSIRPα-VβC1αC2α (SEQ ID NO: 55), hSIRPα-VαC1βC2α (SEQ ID NO: 57), and hSIRPα-VaC1αC2β (SEQ ID NO: 59) were synthesized (GeneArt) and subcloned into the pCI-neo vector. Binding of hSIRPα.50A to the exchange mutants was tested using CELISA. To this end, CHO-K1 cells were transiently transfected, using Lipofectamine 2000, with the pCI-neo vectors encoding hSIRPαV1, hSIRPαV2, hSIRPβ1, hSIRPα-VβC1αC2α, hSIRPα-VαC1βC2α, and hSIRPα-VαC1αC2β, respectively. The transfected cells were cultured at 37° C., 5% CO₂ and 95% humidity in medium (DMEM-F12 (Gibco) with 5% New Born Calf serum (Biowest) and Pen/Strep (Gibco)) until confluent. Subsequently, cells were trypsinized and seeded in 96-well flat-bottom tissue culture plates and cultured at 37° C., 5% CO₂ and 95% humidity in culture medium until confluent. Then, culture medium was removed and cells were incubated for 1 hour at 37° C., 5% CO₂ and 95% humidity with hSIRPα.50A and anti-hSIRPα clone SE5A5 antibodies. Next, cells were washed with PBS-T and incubated for 1 hour at 37° C., 5% CO₂ and 95% humidity with goat-anti-mouse IgG-HRP conjugate (Southern Biotech). After that, cells were washed three times with PBS-T and anti-hSIRPα immunoreactivity was visualized with TMB Stabilized Chromogen (Invitrogen). Reactions were stopped with 0.5 M H₂SO₄ and absorbances were read at 450 and 610 nm.

[1] = biological target: T2, hSIRPα expressed on primary human cells (human, UniProt P78324 31-504); assay: flow cytometry, primary CD14+ enriched monocytes, donor 2
T2 construct: whole, on cells; also called hSIRPα on primary human CD14+ monocytes; on primary human granulocytes
T2 sequence (P78324 31-504): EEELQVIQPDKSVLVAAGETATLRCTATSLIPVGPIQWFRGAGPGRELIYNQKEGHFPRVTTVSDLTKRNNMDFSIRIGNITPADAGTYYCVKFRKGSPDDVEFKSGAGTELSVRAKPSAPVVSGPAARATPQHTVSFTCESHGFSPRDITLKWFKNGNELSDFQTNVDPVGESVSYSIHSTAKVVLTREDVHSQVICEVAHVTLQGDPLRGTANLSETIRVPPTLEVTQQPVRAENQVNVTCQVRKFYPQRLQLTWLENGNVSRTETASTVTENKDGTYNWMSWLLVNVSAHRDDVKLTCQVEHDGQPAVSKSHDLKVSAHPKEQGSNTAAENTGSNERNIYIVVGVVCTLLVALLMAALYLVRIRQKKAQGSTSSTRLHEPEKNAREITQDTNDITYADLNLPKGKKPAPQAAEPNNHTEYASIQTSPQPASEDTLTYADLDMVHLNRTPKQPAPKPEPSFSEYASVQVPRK
Protocol: Next, the binding of hSIRPα.50A to hSIRPα expressed on primary human CD14⁺ monocytes was investigated. In addition, the ability of hSIRPα.50A to block the interaction between hSIRPα and recombinant hCD47/Fc-protein was assessed. For this purpose, CD14+ monocytes were isolated from Ficoll-purified human peripheral blood mononuclear cells (PBMCs) using RosetteSep human monocyte enrichment cocktail (Stemcell). The percentage of monocytes present after the enrichment was determined by flow cytometry on the FACSVerse (BD Biosciences) based on CD14 staining using an APC-Cy7-conjugated mouse-anti-human CD14 detection antibody (BD Biosciences). […] After this labeling procedure, cells were washed two times, resuspended in PBS/1% BSA containing 0.1 μg/mL DAPI (BioLegend), and analysed by flow cytometry on the FACSVerse (BD Biosciences). Data were processed and analysed with FlowJo V10 software (FlowJo, LLC).
To assess the blocking ability of hSIRPα.50A, CD14+ enriched monocytes cells were seeded in 96-well round bottomed tissue culture plates and incubated for 45 minutes with FcR Blocking Reagent (Miltenyi Biotec) and hSIRPα.50A antibody (200 μg/mL and dilutions thereof) in PBS/1% BSA at 4° C. […] After this labeling procedure, cells were washed two times, resuspended in PBS/1% BSA containing 0.1 μg/mL DAPI (BioLegend), and analysed by flow cytometry on the FACSVerse (BD Biosciences). […]

[2] = biological target: T2, hSIRPα expressed on primary human cells; assay: flow cytometry on CD14+ enriched monocytes, human donor 2; blocked ligand: DyLight 488-labeled recombinant hCD47/Fc
Protocol: To assess the blocking ability of hSIRPα.40A, CD14+ enriched monocytes cells were seeded in 96-well round bottomed tissue culture plates and incubated for 45 minutes with FcR Blocking Reagent (Miltenyi Biotec) and hSIRPα.40A antibody (20 μg/mL and dilutions thereof) in PBS/1% BSA at 4° C. […] After this labeling procedure, cells were washed two times, resuspended in PBS/1% BSA containing 0.1 μg/mL DAPI (BioLegend), and analysed by flow cytometry on the FACSVerse (BD Biosciences). Data were processed and analysed with FlowJo V10 software (FlowJo, LLC). […] IC50 values represent the concentration at which half of the inhibition is observed.

EC50 (human SIRPα variant 1) [nM] | EC50 [1] [nM] | IC50 (read off the curve) [2] [nM] | Binder
0.321 | 3.08 | – | hSIRPα.50A (antibody, V domains shown, light chain constant domain not tied; also called mouse hSIRPα.50A; hSIRPα.50A.mIgG1) VH: QVQLQQSGPELVKPGASVRISCKASGFTFTNYYIHWVKQRPGQGLEWIGWIYPGNVNTKYNEKFKAKATLTADKSSTTAYMQLSSLASEDSAVYFCARPTIIATDFDVWGAGTTVTVSS VL: DIVMTQSHKFMSTSVGDRVNITCKASQGVGTAVGWYQQKPGQSPRLLIYWASTRHTGVPDRFTGSGSGTDFSLAISNVQSEDLADYFCQQYSTYPFTFGGGTNLEIK
– | – | ~0.5 | hSIRPα.40A (antibody, mouse IgG1, kappa, V domains shown, mouse antibody, full chains without signal peptide; also called mouse hSIRPα.40A) VH: EVQFQQSGTVLARPGTSVKMSCKASGSTFTSYWMHWVKQGPGQGLQWIGAIYPVNNDTTYNQKFKGKAELTVVTSTSTAYMEVSSLTNEDSAVYYCTRSFYYSLDAAWFVYWGQGTLVTVSA VL: DIQMTQSPSSLSASLGERVSLTCRASQDIGSRLNWLQQEPDGTIKRLIYATSSLDSGVPKRFSGSRSGSDYSLTISGLESEDFVDYYCLQYASSPFTFGGGTKLEINR
